In CN113173995A (SHANGHAI PUBLIC HEALTH CLINICAL CT, dated 2021):

How the values were obtained:
Assay in all cases: cell-based or functional assay
SARS-CoV-2 S蛋白突变株F342L = SARS-CoV-2 S蛋白突变株F342L (SARS-CoV-2, UniProt P0DTC2 14-1273)
SARS-CoV-2 S蛋白突变株A372T = SARS-CoV-2 S蛋白突变株A372T (SARS-CoV-2, UniProt P0DTC2 14-1273)
SARS-CoV-2 S蛋白突变株T376A = SARS-CoV-2 S蛋白突变株T376A (SARS-CoV-2, UniProt P0DTC2 14-1273)
SARS-CoV-2 S蛋白突变株E309D = SARS-CoV-2 S蛋白突变株E309D (SARS-CoV-2, UniProt P0DTC2 14-1273)
SARS-CoV-2 S蛋白突变株P491A = SARS-CoV-2 S蛋白突变株P491A (SARS-CoV-2, UniProt P0DTC2 14-1273)

Measured: 假病毒中和 IC50 (Huh-7细胞, 荧光素酶)

B1: 全人源新型冠状病毒单抗REGN10989 (antibody, V domains shown)
VH: QVQLVQSGAEVKKPGASVKVSCKASGYIFTGYYMHWVRQAPGQGLEWMGWINPNSGGANYAQKFQGRVTLTRDTSITTVYMELSRLRFDDTAVYYCARGSRYDWNQNNWFDPWGQGTLVTVSS
VL: QSALTQPASVSGSPGQSITISCTGTSSDVGTYNYVSWYQQHPGKAPKLMIFDVSNRPSGVSDRFSGSKSGNTASLTISGLQAEDEADYYCSSFTTSSTVVFGGGTKLTVL
> 50 µg/mL: all assays above
